Data on eleven molecules can be found in patent publication US11202837B2, “Biological materials and uses thereof” (Antikor Biopharma Limited, priority 2014, dated 2021).

One assay relates to BT474 cells. Put plainly: Cell killing assay (MTS), BT474 cells. The class given is cell-based, human. As for the experimental part: (§1) The cells were recovered by centrifugation (2 min, 2000 rpm), the supernatant was discarded, and the cells were resuspended in complete McCoy's 5A (5 ml). The cells were then counted using a haemocytometer and diluted accordingly. They were plated at 5000 cells/well (200 μl) using attachment factor and incubated overnight at 37° C., 5% CO2 in a humidified atmosphere. U87 is a non-HER2 expressing glioblastoma cell line [Zitron I M et al (2013) BMC Cancer 13:83] and was grown in a similar way, plated at 1000 cells/well (using DMEM media). BT474 is a HER2 expressing breast cancer cell line [Brockhoff G et al (2007) Cell Prolif 40:488-507] and was grown in a similar way, plated at 7500 cells/well (using RPMI media). NCI-N87 is a HER2 expressing gastric cancer cell line [Yamashita-Kashima Y et al (2013) Oncol. Rep 30:1087-93] and was grown in a similar way, plated at 7500 cells/well (using RPMI media).
The cells were exposed to the various ADCs diluted in complete media for 96 hours at 37° C., 5% CO2 in a humidified atmosphere. Cell viability was measured using the Promega Aqueous Cell-titre-96™ aqueous one solution cell proliferation kit (MTS reagent) according to manufacturer's instructions. Briefly, the media was removed and 100 μl of complete phenol red free media, pre-combined with MTS reagent, was added to the cells (20 μl of reagent per 100 μl of media). The plates were read on an ELISA plate reader at 490 nm after a 2 hr incubation in the dark (5% CO2, 37° C.).
The data (absorption units) were converted to % cell survival by using the untreated controls as the 100% cell survival and the Triton X-100 controls as the 100% cell death. The average absorption value for the latter was subtracted from all the rest of the data in order to get a suitable baseline. The averages were converted to survival and standard error values were obtained for each n value (as a % cell survival). […] Experiments were repeated at least 3 times for each compound tested and a set or an average of the data was plotted and fitted to obtain a dose-response curve.

For another assay, the system named is SKBr3 cells. Put plainly: Cell killing assay (MTS), SKBr3 cells. The class given is cell-based, human. How it is done: SKBr3, human breast cancer cell line, high HER2 expression levels, up to 1,000,000 receptors per cell [Lazar G A, et al Proc Natl Acad Sci USA. […] When confluency was 70-80%, cells were washed with PBS (2×10 ml) and incubated with trypsin for 5-7 min. Complete media was added and the cells were resuspended by pipetting. The cells were recovered by centrifugation (2 min, 2000 rpm), the supernatant was discarded, and the cells were resuspended in complete DMEM (5 ml). The cells were then counted using a haemocytometer and diluted accordingly. They were plated at 4500 cells/well (200 μl) using attachment factor and incubated overnight at 37° C., 5% CO2 in a humidified atmosphere. U87 is a non-HER2 expressing glioblastoma cell line and was grown in a similar way, plated at 1000 cells/well.
[…] Cell viability was measured using the Promega Aqueous Cell-titre-96™ aqueous one solution cell proliferation kit according to manufacturer's instructions. Briefly, the media was removed and 100 μl of complete phenol red free media, pre-combined with MTS reagent, was added to the cells (20 μl of reagent per 100 μl of media). The plates were read on an ELISA plate reader at 490 nm after a 2 hr incubation in the dark (5% CO2, 37° C.).
The data (absorption units) were converted to % cell survival by using the untreated controls as the 100% cell survival and the Triton X-100 controls as the 100% cell death. The average absorption value for the latter was subtracted from all the rest of the data in order to get a suitable baseline. The averages were converted to survival and standard error values were obtained for each n value (as a % cell survival). […] Experiments were repeated at least 3 times for each compound tested and a set or an average of the data was plotted and fitted to obtain a dose response curve.
as §1
[…] Cell viability was measured using the Promega Aqueous Cell-titre-96™ aqueous one solution cell proliferation kit (MTS reagent) according to manufacturer's instructions. Briefly, the media was removed and 100 μl of complete phenol red free media, pre-combined with MTS reagent, was added to the cells (20 μl of reagent per 100 μl of media). The plates were read on an ELISA plate reader at 490 nm after a 2 hr incubation in the dark (5% CO2, 37° C.).
The data (absorption units) were converted to % cell survival by using the untreated controls as the 100% cell survival and the Triton X-100 controls as the 100% cell death. The average absorption value for the latter was subtracted from all the rest of the data in order to get a suitable baseline. The averages were converted to survival and standard error values were obtained for each n value (as a % cell survival).

The next assay addresses HER2 (Homo sapiens, UniProt P04626). Put plainly: Biacore SPR binding to immobilised HER2. The settings on record: immobilised HER2. How it is done: The binding affinity against immobilised HER2 target antigen was determined by Biacore SPR compared to the unmodified scFv on a Biacore T200. A standard amine-coupling method was used to prepare all Biacore surfaces (CM5 or CM3), as follows. Flow cells were activated individually by injecting a freshly mixed solution of 0.2M EDC in 0.05 M NHS at 30 μl/min. […] Excess NHS ester was deactivated using a 1 M ethanolamine solution. To measure the kinetics of the antibody and conjugate on the HER2 chip, a […] serial dilution (typically at 5, 2.5, 1.25, 0.6 μg/ml or lower for free antibody and 20, 10, 5, 2.5 μg/ml for the conjugates), was injected for 160 s at 30 μl/min, allowing a 900-s dissociation phase. The dissociation time was extended to 3600 s for the highest concentration. Surfaces were regenerated with 45 s injection of MgCl2 8M.
To evaluate binding ability, manual runs were performed at 30 μl/min with a 60 s injection of the desired compound followed by 60 s waiting time and a 45 s of regeneration at 10 μl/min using MgCl2 8M. All data was analysed using the software, BIAEvaluation.
(In SPR one partner is held on a chip, and binding of the other changes the refractive index at the surface.)

The mark [1] stands for this setting: SKBr3 Cells (HER2 +++), 4 hours incubation, Table 52.
Where [2] appears, read: SKBr3 Cells (HER2 +++), 4 hours incubation, Table 52, read-out: IC50.
The mark [3] stands for this setting: SKBr3 Cells (HER2 +++), 96 hours incubation, Table 52.
[4] abbreviates: SKBr3 Cells (HER2 +++), 96 hours incubation, Table 52, read-out: IC50.
The mark [5] stands for this setting: 96 hours exposure, read-out: IC50 nM SKBr3 Cells (HER2+++).

Converted amounts (≈) assume the structure as drawn. Read-outs that look alike come from different tables or passages of the source. Where a SMILES comes first, the peptide text is derived from it. [ ]: non-standard residue; d: D form. The star is where a group is joined. Dolaproine = CO[C@@H]([C@@H]1CCCN1)[C@@H](C)C(=O)O; Dil = CC[C@H](C)[C@H](NC)[C@@H](CC(=O)O)OC; NMe2Val = CC(C)[C@@H](C(=O)*)N(C)C; NMeV = CN[C@H](C(=O)O)C(C)C

What is called IC50 is the concentration needed to halve the response being measured. As for `CC[C@H](C)[C@@H]([C@@H](CC(=O)N1CCC[C@H]1[C@H](OC)[C@@H](C)C(=O)N[C@@H](Cc1ccccc1)C(=O)O)OC)N(C)C(=O)[C@@H](NC(=O)[C@@H](NC)C(C)C)C(C)C` [Free drug MMAF] (H-[NMeV]V[Dil][Dolaproine]F-OH), in the assay with BT474 cells (Homo sapiens, BT-474, 96 h, read-out: IC50 pM), the IC50 is > 10000 pM.
Consider `CC[C@H](C)[C@@H]([C@@H](CC(=O)N1CCC[C@H]1[C@H](OC)[C@@H](C)C(=O)N[C@@H](Cc1ccccc1)C(=O)O)OC)N(C)C(=O)[C@@H](NC(=O)[C@H](C(C)C)N(C)C)C(C)C` [Free Auristatin] (NMe2Val-V[Dil][Dolaproine]F-OH), for which the “IC50 μg/ml” value with SKBr3 cells (setting [1]) came out at 0.00181 µg/mL (≈ 2.43 nM); in the assay with SKBr3 cells (setting [3]), 0.00081 µg/mL (≈ 1.09 nM). For the same molecule, the values for the IC50 with SKBr3 cells (setting [2]) and in the assay on SKBr3 cells (setting [4]) were > 100 nM and > 10 nM, respectively.

B1: scFv (TCT)-P5C5, DAR = 5 (conjugate)
scFv: SGSGGSGQVQLVQSGAEVKKPGESLKISCKGSGYSFTSYWIAWVRQMPGKGLEYMGLIYPGDSDTKYSPSFQGQVTISVDKSVSTAYLQWSSLKPSDSAVYFCARHDVGYCSSSNCAAWPEYFQHWGQGTLVTVSSGGGGSGGGGSGGGGSQSVLTQPPSVSAAPGQKVTISCSGSSSNIGNNYVSWYQQLPGTAPKLLIYGHTNRPAGVPDRFSGSKSGTSASLAISGFRSEDEADYYCAAWDDSLSGWVFGGGTKLTVLMASMTGGQQMG
On to B1, for which the “IC50 μg/ml SKBr3 Cells (HER2+++)” value in the assay on SKBr3 cells (96 hours exposure) was determined as 1.33 ± 0.1 µg/mL. In addition, the IC50 in the assay with SKBr3 cells (setting [5]) is 47.5 ± 0.36 nM.

B2: scFv (TCT)-P5C5, DAR = 8 (conjugate)
scFv: B1 scFv
On to B2, for which the “IC50 μg/ml SKBr3 Cells (HER2+++)” value with SKBr3 cells (96 hours exposure) amounted to 0.8 ± 0.1 µg/mL. Further, the IC50 in the assay on SKBr3 cells (setting [5]) amounted to 28 ± 0.36 nM.

B3: scFv (TCT)-MMAF DAR 8 (conjugate)
scFv: B1 scFv
On to B3, for which the “IC50 μg/ml” value with SKBr3 cells (SKBr3 Cells (HER2+++), 96 hours, Table 47) was determined as 0.0053 µg/mL; with BT474 cells (BT474 Cells (HER2++), 96 hours, Table 47), 0.02 µg/mL. Further, the 50% inhibitory concentration (IC50) stood at 0.189 nM in the assay on SKBr3 cells (SKBr3 Cells (HER2+++), 96 hours, Table 47, read-out: IC50) and 714 pM with BT474 cells (BT474 Cells (HER2++), 96 hours, Table 47, read-out: IC50).

B4: scFv (TCT1067)-MMAF-C5 DAR 5.2 (conjugate)
scFv: SGSGGSGQVQLVQSGAEVKKPGESLKISCKGSGYSFTSYWIAWVRQMPGKGLEYMGLIYPGDSDTKYSPSFQGQVTISVDKSVSTAYLQWSSLKPSDSAVYFCARHDVGYCTDRTCAAWPEWLGVWGQGTLVTVSSGGGGSGGGGSGGGGSQSVLTQPPSVSAAPGQKVTISCSGSSSNIGNNYVSWYQQLPGTAPKLLIYGHTNRPAGVPDRFSGSKSGTSASLAISGFRSEDEADYYCASWDYTLSGWVFGGGTKLTVLMASMTGGQQMG
Turning to B4, in the assay with HER2, the association rate is 1.8e+06 M⁻¹ s⁻¹ and the dissociation rate was 3.4e-05 s⁻¹.

B5: scFv (TCT1067)-Auristatin-F-C5 DAR 3.3 (conjugate)
scFv: B4 scFv
In the assay with HER2, B5 registered an association rate of 556000 M⁻¹ s⁻¹ and a dissociation rate of 1.82e-05 s⁻¹.

B6: ScFv (TCT1067)-AF-C5 DAR 5.3 (conjugate)
scFv: B4 scFv
Regarding B6, the “IC50 μg/ml” value in the assay on SKBr3 cells (setting [1]) was found to be 0.00181 µg/mL; in the assay on SKBr3 cells (setting [3]), 0.00081 µg/mL. Further, the figures for the IC50 with SKBr3 cells (setting [2]) and in the assay with SKBr3 cells (setting [4]) were 0.0644 nM and 0.0288 nM, respectively.

B7: scFv (TCT1067)-Auristatin-F-C5 DAR 5.65 (conjugate)
scFv: B4 scFv
In the assay with HER2, B7 came in with an association rate of 336000 M⁻¹ s⁻¹ and a dissociation rate of 1.35e-05 s⁻¹.

B8: scFv (TCT1067)-P5C5 DAR 10.6 (conjugate)
scFv: B4 scFv
As for B8, the “IC50 μg/ml” value with BT474 cells (BT474 Cells (HER2++), 96 hours, Table 48) worked out at 0.5 µg/mL. Besides, in the assay with BT474 cells (BT474 Cells (HER2++), 96 hours, Table 48, read-out: IC50), the IC50 was 17800 pM.

B9: scFv (TCT1067)-Auristatin-F-C5 DAR 11.9 (conjugate)
scFv: B4 scFv
On to B9, for which, in the assay with HER2, the association rate came out at 21700 M⁻¹ s⁻¹ and the dissociation rate was 1.76e-05 s⁻¹.
